“And” between values parts separate entries of the source, which are not always exact repeats. Identical values can stand only once. Where no end group is shown, it is not given here.

Experiment [1] concerns the target SIY-loaded H-2 K^bm3 (mouse). The experiment can be described thus: cell-based or functional assay.
The target in experiment [2] is dEV-8-loaded H-2 K^bm3 (mouse). The experiment can be described thus: cell-based or functional assay.
Experiment [3] has as its target SIY-loaded H-2 K^b (mouse) (UniProt P01901). The experiment can be described thus: cell-based or functional assay.
Experiment [4] addresses p2Ca-loaded H-2 L^d (mouse) (UniProt P01897). The experiment can be described thus: cell-based or functional assay.
Experiment [5] relates to 2C CTL, T2 K^bm11 target cells. The experiment can be described thus: 2C CTL mediated lysis of peptide-loaded T2 K^bm11 targets. It counts as cell-based, mice. Particulars: data not shown. The method, then: (§1) CTL Assays. Splenocytes from 2C TCR transgenic mice (Sha et al. Nature 336:73-76, 1988) were resuspended at 1.25×10^6 per ml and stimulated with 1.75×10^6 BALB/c splenocytes that had been exposed to 3,000 cGy radiation. On day 7, the 2C T cell-enriched cultures were restimulated at 5×10^5 per ml with 2.5×10^6 per ml BALB/c splenocytes. Experiments were performed on this and subsequent stimulationUs on day 4. All subsequent stimulation was performed with 3.75×10^5 per ml 2C splenocytes and 2.5×10^6 per ml BALB/c cells in the presence of IL-2 (5 units/ml).
(§2) Assays were performed in triplicate according to established CTL protocols. Briefly, target cells (2-4×10^6) were incubated with […] ^51[Cr] at 37° C. for 1 h. After three washes, cells were added to V-bottom 96 well plates (3×10^3/100 μl) and incubated (25° C. for 1.5 hour) with peptides at the indicated concentrations. 2C T cells (3×10^4/100 μl) were added to targets and plates were incubated at 37° C. for 4.5 hour. Maximum release was achieved by incubating targets with 5% Triton X 100. Percent specific lysis was calculated from raw data using [(experimental release—spontaneous release )/(maximum release—spontaneous release)]×100.

In experiment [6] the test system is 2C CTL, T2 K^b target cells. It counts as cell-based. The protocol:
(§3) FIGS. 12(A-C). 2C CTL mediated lysis on various peptide/MHC targets. […] Peptide-loaded target cells were then incubated at an effector to target ratio of 10:1 and specific lysis calculated as described below. Data shown are representative of three separate experiments.
as §1, §2

For experiment [7], the system named is 2C CTL, T2 K^bm3 target cells. It counts as cell-based. The protocol: as §3, §1, §2
For another experiment, the target named is 2C TCR. To be noted: read-out: Kd (μM) of 2C TCR for peptide/MHC complex; MHC restriction H-2 Ld; monovalent 2C TCR; cited from earlier work.
The test system of a further experiment is RENCA cells. The experiment can be described thus: Effect of γ-IFN on endogenous peptide/H-2 L^d complexes of RENCA cells, FACS with 2C TCR/Ig or mAb 30.5.7. To be noted: for effect of prior incubation of RENCA cells with peptide on 2C TCR/Ig binding: saturating peptide. It counts as cell-based, murine. The method, then: FIGS. 13(A-H). Fluorescence data showing modulation of endogenous 2C specific peptide/H-2 L^d complexes on the surface of RENCA cells by γ-IFN. RENCA cells were cultured for 48 hours with 0 (FIGS. 13A and 13E), 5 (FIGS. 13B and 13F), 10 (FIGS. 13C and 13G), or 50 (FIGS. 13D and 13H) units/ml γ-IFN. […] This was accomplished by incubating RENCA cells with saturating amounts of the H-2 L^d binding peptide, MCMV, which efficiently displaced the endogenous H-2 L^d bound peptides, including any 2C-reactive peptides. […] Cells were subsequently stained with GAM-IgG-RPE and analyzed by FACS. Resultant histograms are shown. Solid lines represent histograms of cultures with no added peptide while dotted lines represent histograms from cultures incubated with pMCMV. All experiments were done in duplicate and repeated at least three times. Note the differences in the extent of fluorescence (see the scales on the histograms) upon staining with 2C-TCR/Ig vs. staining with 30.5.7.
Peptide Loading of Cells. RMA-S and T2 cell lines are defective in antigen processing and express functionally “empty” class I MHC on their cell surface. These “empty” MHC molecules can be loaded with peptides using the following protocol (25). Cells (RMA-S, RMA-S L^d, T2, T2 L^d, T2 Kb, T2 Kbm3 or T2 K^bm11) are cultured at 27° C. overnight. The following morning, cells are cultured in the presence of various antigenic peptides (100 μM final concentration) or in the absence of peptides for an additional 1.5 hours at 27° C. and then incubated for one hour at 37° C. RENCA cells were loaded with peptides by incubation with peptides (100 μM final concentration) for >2 hour at 37° C. Cells were then harvested and processed for FACS analysis as described.
To analyze this possibility and to follow the expression of endogenous 2C-reactive peptide/H-2 L^d complexes within a heterogeneous peptide/MHC environment, the influence of γ-IFN on the H-2 L^d -expressing murine cell line RENCA was studied.
RENCA cells were cultured in the presence of variable amounts of γ-IFN to induce up-regulation of naturally loaded peptide/MHC complexes. […] The effect of γ-IFN was dose dependent with a maximal 2-3 fold increase seen on cells treated with 10 units/ml of γ-IFN.

Experiment [8] has as its target serologically reactive H-2 L^d on RENCA cells (murine) (UniProt P01897). The experiment can be described thus: flow cytometry on unstimulated RENCA cells.
The target is the same in experiment [9]. The experiment can be described thus: flow cytometry on RENCA cells stimulated with 5-50 units/ml γ-IFN. A general note: A flow cytometer gives signals particle by particle.
Experiment [10] deals with pVSV-loaded H-2 K^b (mouse) (UniProt P01901). The experiment can be described thus: flow cytometry on peptide-loaded T2 K^b cells.
Chain of pVSV-loaded H-2 K^b (mouse) (P01901 22-369): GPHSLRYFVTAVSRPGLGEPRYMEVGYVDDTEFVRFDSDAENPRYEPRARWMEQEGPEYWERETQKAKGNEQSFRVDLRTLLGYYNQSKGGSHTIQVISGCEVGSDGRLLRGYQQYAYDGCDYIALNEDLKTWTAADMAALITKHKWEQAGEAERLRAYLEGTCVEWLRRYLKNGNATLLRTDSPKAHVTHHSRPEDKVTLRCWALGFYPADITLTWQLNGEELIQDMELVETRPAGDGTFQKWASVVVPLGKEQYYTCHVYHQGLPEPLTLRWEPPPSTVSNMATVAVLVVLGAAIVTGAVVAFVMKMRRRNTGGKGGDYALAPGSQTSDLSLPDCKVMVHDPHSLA
For experiment [11], the target named is SIY-loaded H-2 K^b (mouse) (UniProt P01901). The experiment can be described thus: flow cytometry on peptide-loaded T2 K^b cells.
Chain of SIY-loaded H-2 K^b (mouse) (P01901 22-369): as above
Experiment [12] concerns the target SIY-loaded H-2 K^bm3 (mouse). The experiment can be described thus: flow cytometry on peptide-loaded T2 K^bm3 cells.
The target of experiment [13] is pVSV-loaded H-2 K^bm3 (mouse). The experiment can be described thus: flow cytometry on peptide-loaded T2 K^bm3 cells.
The target of experiment [14] is QL9-loaded H-2 L^d (mouse) (UniProt P01897). The experiment can be described thus: flow cytometry, serial dilutions on peptide-loaded RMA-S L^d cells, H57-FITC detection.
Chain of QL9-loaded H-2 L^d (mouse) (P01897 25-362): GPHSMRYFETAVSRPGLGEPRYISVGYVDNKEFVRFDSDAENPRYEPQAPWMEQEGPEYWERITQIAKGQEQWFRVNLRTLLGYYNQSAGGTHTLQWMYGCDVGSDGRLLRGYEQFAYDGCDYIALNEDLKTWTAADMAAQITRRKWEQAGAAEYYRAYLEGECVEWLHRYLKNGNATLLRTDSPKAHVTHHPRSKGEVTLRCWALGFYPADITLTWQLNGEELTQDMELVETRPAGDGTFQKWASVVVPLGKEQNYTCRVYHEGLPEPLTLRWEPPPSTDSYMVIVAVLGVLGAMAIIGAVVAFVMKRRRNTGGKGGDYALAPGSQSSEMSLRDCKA
The target in experiment [15] is p2Ca-loaded H-2 L^d (mouse) (UniProt P01897). The experiment is described as above.
Chain of p2Ca-loaded H-2 L^d (mouse) (P01897 25-362): as above
Experiment [16] addresses QL9-loaded H-2 L^d (mouse) (UniProt P01897). The experiment can be described thus: direct flow cytometry on peptide-loaded L^d cells.
For experiment [17], the target named is SL9-loaded H-2 L^d (mouse) (UniProt P01897). The experiment can be described thus: direct flow cytometry on peptide-loaded RMA-S L^d cells.
Chain of SL9-loaded H-2 L^d (mouse) (P01897 25-309): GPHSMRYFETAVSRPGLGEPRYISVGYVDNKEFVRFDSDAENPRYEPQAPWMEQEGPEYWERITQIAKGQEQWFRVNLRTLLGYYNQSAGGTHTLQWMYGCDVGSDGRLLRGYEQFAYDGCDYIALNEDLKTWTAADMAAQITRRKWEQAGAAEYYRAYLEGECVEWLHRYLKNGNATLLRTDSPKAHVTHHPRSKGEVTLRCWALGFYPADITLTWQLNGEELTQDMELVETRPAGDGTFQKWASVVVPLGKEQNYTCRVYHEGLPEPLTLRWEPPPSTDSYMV

Chain of serologically reactive H-2 L^d on RENCA cells (murine) (P01897 25-362): as the sequence (P01897 25-362) above
Chain of soluble divalent 2C TCR/Ig (A2KF29 whole entry, looked up, tested part not stated): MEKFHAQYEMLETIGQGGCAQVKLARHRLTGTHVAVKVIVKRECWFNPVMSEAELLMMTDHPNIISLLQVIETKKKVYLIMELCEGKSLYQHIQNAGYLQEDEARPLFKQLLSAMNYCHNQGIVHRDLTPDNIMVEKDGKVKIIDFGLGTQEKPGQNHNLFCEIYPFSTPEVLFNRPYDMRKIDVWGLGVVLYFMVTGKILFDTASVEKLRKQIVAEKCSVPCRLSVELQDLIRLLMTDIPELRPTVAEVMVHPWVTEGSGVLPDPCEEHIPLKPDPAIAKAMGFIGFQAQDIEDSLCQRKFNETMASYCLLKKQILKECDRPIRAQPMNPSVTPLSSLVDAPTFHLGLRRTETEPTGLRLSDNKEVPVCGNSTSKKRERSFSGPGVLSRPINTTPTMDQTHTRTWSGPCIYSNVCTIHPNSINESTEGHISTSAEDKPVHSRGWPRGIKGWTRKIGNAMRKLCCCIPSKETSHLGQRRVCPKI
Chain of 2C TCR on 2C CTL (A2KF29 whole entry): as the sequence (A2KF29 whole entry, looked up, tested part not stated) above

For the substance 2C TCR on 2C CTL (from UniProt A2KF29), the LD50 of peptide for 2C CTL mediated lysis was 100 ng/mL in [1]; 0.5 ng/mL and 1 ng/mL in experiment [2]; 10 ng/mL in experiment [3]. The substance also yielded an LD50 of peptide for 2C CTL mediated lysis of p2Ca-loaded T2 L^d cells in [4] of 0.5 ng/mL.

Consider EQYKFYSV [dEV-8], for which the “2C CTL mediated lysis of peptide loaded targets” value is on record as “relatively poor targets” in experiment [5], “neither lysed” in [6] and “efficiently lysed” in experiment [7].

For LSPFPFDL [p2Ca], the Kd on 2C TCR was 0.1 to 0.5 µM.

LSPFPFDLL [SL9]: at 2C TCR, the Kd was 71 µM.

As for QLSPFPFDL [QL9], on 2C TCR, the Kd is 0.066 µM. Besides, in the experiment on RENCA cells, the “effect of prior incubation of RENCA cells with peptide on 2C TCR/Ig binding” value was “dramatic increase”.

SIYRYYGL [SIY]: the “2C CTL mediated lysis of peptide loaded targets” value was “efficient lysis” in experiment [5], “efficient lysis” in experiment [6] and “significantly less efficient” in experiment [7]. The “LD50 of peptide for 2C CTL mediated lysis” value in [7] (T2 K^bm3 targets, effector to target ratio 10:1) is about 100 ng/mL.

For the substance YPHFMPTNL [pMCMV], the “effect of prior incubation of RENCA cells with peptide on 2C TCR/Ig binding” value in the experiment with RENCA cells is reported as “blocked”.

With mAb 30.5.7 (antibody), the figures for the mean channel fluorescence (MCF) in experiment [8] and in experiment [9] were 500 and 2670 to 3040, respectively.

Consider “soluble divalent 2C TCR/Ig (from UniProt A2KF29)”, for which the mean channel fluorescence (MCF) in experiment [10] is 14; in [11] it was 276; in experiment [12], 36; in experiment [13], 12; in [16] it was 3000; in experiment [17], 100. In experiment [14], the lowest concentration tested, at which binding was detected amounted to 1 nM. This substance also had a concentration required to detect binding in experiment [15] of 3 nM.

On to “γ-IFN: lymphokine used to up-regulate naturally loaded peptide/MHC complexes on RENCA cells”, for which the “increase in serologically reactive H-2 L^d recognized by mAb 30.5.7” value in the experiment on RENCA cells (5-50 units/ml γ-IFN, 48 hours) is reported as 5-6 fold. Also, the “maximal increase of 2C TCR/Ig binding to RENCA cells” value in the experiment on RENCA cells (10 units/ml γ-IFN, 48 hours) is given as 2-3 fold.
